The numbers were not newly measured in US11878044B2, “Combination therapy for ischemia” (NoNO Inc., priority 2011, dated 2024), which cites them from elsewhere.

For the series, the target named is binding of NMDAR 2B to PSD-95 (Homo sapiens, UniProt P78352). To be noted: reported by Bach.
Chain of binding of NMDAR 2B to PSD-95 (P78352 whole entry): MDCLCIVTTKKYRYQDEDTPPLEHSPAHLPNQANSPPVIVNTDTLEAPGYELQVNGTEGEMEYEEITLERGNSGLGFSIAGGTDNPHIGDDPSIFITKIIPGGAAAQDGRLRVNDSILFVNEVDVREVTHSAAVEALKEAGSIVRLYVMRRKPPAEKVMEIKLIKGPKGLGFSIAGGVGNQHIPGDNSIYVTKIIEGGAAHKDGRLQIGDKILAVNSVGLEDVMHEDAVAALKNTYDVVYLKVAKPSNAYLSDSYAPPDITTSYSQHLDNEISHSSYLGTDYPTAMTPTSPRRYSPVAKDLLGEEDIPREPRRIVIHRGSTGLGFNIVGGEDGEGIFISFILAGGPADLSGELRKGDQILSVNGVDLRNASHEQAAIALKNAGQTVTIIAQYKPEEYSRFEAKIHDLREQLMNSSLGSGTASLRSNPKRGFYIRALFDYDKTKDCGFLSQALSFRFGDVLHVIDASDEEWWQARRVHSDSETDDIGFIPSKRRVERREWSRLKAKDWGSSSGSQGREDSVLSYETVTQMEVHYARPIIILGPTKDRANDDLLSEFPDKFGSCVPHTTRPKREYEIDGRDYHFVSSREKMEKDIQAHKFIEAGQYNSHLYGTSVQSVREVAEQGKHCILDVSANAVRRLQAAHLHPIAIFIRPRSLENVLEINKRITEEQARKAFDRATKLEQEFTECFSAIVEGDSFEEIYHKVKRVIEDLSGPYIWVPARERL

For the substance IESDV, the “inhibiting binding of NMDAR 2B to PSD-95” value is recorded as “effective in inhibiting binding of NMDAR 2B to PSD-95”.
